# Test results: patent publication US20210198369A1 (DRAGONFLY THERAPEUTICS, published 2021)
# Where “and” joins values, the source holds several entries; their conditions need not be identical. Equal values may be shown once.
# T1: fusion protein of human NKG2D and murine Fc (human, UniProt P26718 78-216)
# T1 construct: also called mFc-hNKG2D; not shown: murine Fc
# T1 sequence (looked up): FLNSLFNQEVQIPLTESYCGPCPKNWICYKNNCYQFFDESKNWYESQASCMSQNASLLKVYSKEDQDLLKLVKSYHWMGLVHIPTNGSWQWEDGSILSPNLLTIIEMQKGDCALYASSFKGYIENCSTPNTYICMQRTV
# Experiments:
# [1] = biological target: T1, fusion protein of human NKG2D and …; assay: SPR at 37 C, mFc-hNKG2D captured, TriNKET as analyte, steady state affinity fit; reference TriNKET A
# Description: (§1) Steady state affinity fit was utilized to obtain the equilibrium affinity data.
# [2] = biological target: T1, fusion protein of human NKG2D and …; assay: SPR at 37 C, steady state affinity fit, average of two independent experiments
# Description: as §1
# [3] = biological target: T1, fusion protein of human NKG2D and …; assay: SPR at 37 C, mFc-hNKG2D captured, TriNKET as analyte, steady state affinity fit
# Description: as §1
# [4] = biological target: T2, HER2 (ErbB2) expressed on human cells (SkBr-3, NCI-H661, 786-O cancer cells; human cardiomyocytes) (human, UniProt P04626 23-1255); assay: cell-based or functional assay
# [5] = biological target: T2, HER2 (ErbB2) expressed on human cells …; assay: flow cytometry on SKBR3 cells, anti-human IgG secondary, fold over background (control TriNKET)
# Description: (§2) TriNKETs were diluted to 3.8e-4 to 100 μg/mL, and the dilutions were used as primary antibody stain. Binding of the TriNKET was detected using a fluorophore-conjugated anti-human IgG secondary antibody. Cells were analyzed by flow cytometry. Binding fluorescence intensity (MFI) to cells expressing HER2 was normalized to cells stained with a control (non-specific) TriNKET to obtain fold over background (FOB) values.
# [6] = biological target: T2, HER2 (ErbB2) expressed on human cells …; assay: flow cytometry on SkBr-3 cells, anti-human IgG secondary, fold over background (secondary only)
# Description: (§3) All three cell lines were used to assess their binding affinity to TriNKET. TriNKETs were diluted in a series of concentrations, and were incubated with the respective cells.
# [7] = biological target: T2, HER2 (ErbB2) expressed on human cells …; assay: flow cytometry on human cardiomyocytes, anti-human IgG secondary, fold over background (control TriNKET)
# Description: as §2
# [8] = biological target: T2, HER2 (ErbB2) expressed on human cells …; assay: flow cytometry on SkBr-3 cells, anti-human IgG secondary, % of maximum MFI
# Description: as §3
# [9] = biological target: T2, HER2 (ErbB2) expressed on human cells …; assay: flow cytometry on H661 cells, anti-human IgG secondary, fold over background (control TriNKET)
# Description: as §2
# [10] = biological target: T1, fusion protein of human NKG2D and …; assay: SPR at 37 C, steady state affinity fit, average of three independent experiments
# Description: as §1
binder,measurement,setting,value
"TriNKET A* (mutant form of TriNKET A having a substitution of Ile for the Met at position 102) (bispecific antibody, human IgG1, also called M102 variant) heavy: EVQLVESGGGLVKPGGSLRLSCAASGFTFSSYSMNWVRQAPGKGLEWVSSISSSSSYIYYADSVKGRFTISRDNAKNSLYLQMNSLRAEDTAVYYCARGAPIGAAAGWFDPWGQGTLVTVSSASTKGPSVFPLAPSSKSTSGGTAALGCLVKDYFPEPVTVSWNSGALTSGVHTFPAVLQSSGLYSLSSVVTVPSSSLGTQTYICNVNHKPSNTKVDKKVEPKSCDKTHTCPPCPAPELLGGPSVFLFPPKPKDTLMISRTPEVTCVVVDVSHEDPEVKFNWYVDGVEVHNAKTKPREEQYNSTYRVVSVLTVLHQDWLNGKEYKCKVSNKALPAPIEKTISKAKGQPREPQVCTLPPSRDELTENQVSLTCLVKGFYPSDIAVEWESNGQPENNYKTTPPVLDSDGSFFLYSWLTVDKSRWQQGNVFSCSVMHEALHNHYTQKSLSLSPG scFv: not shown light: DIQMTQSPSSVSASVGDRVTITCRASQGISSWLAWYQQKPGKAPKLLIYAASSLQSGVPSRFSGSGSGTDFTLTISSLQPEDFATYYCQQGVSFPRTFGGGTKVEIKRTVAAPSPPSDEQLKSGTASVVCLLNNFYPREAKVQWKVDNALQSGNSQESVTEQDSKDSTYSLSSTLTLSKADYEKHKVYACEVTHQGLSSPVTKSFNRGEC",fold reduced affinity compared to TriNKET A,[1],< 2 fold
same,Kd,[2],481 nM
same,Kd,[3],509 nM and 454 nM
same,"EC50 (nM), % specific lysis of SKBR-3 target cells by KHYG-1-CD16V cells (DELFIA)",[4],0.65 nM
"A49-F3'-TriNKET-Trastuzumab (bispecific antibody, human IgG1, also called TriNKET A; HER2-F3'-TriNKET-A49) heavy: EVQLVESGGGLVKPGGSLRLSCAASGFTFSSYSMNWVRQAPGKGLEWVSSISSSSSYIYYADSVKGRFTISRDNAKNSLYLQMNSLRAEDTAVYYCARGAPMGAAAGWFDPWGQGTLVTVSSASTKGPSVFPLAPSSKSTSGGTAALGCLVKDYFPEPVTVSWNSGALTSGVHTFPAVLQSSGLYSLSSVVTVPSSSLGTQTYICNVNHKPSNTKVDKKVEPKSCDKTHTCPPCPAPELLGGPSVFLFPPKPKDTLMISRTPEVTCVVVDVSHEDPEVKFNWYVDGVEVHNAKTKPREEQYNSTYRVVSVLTVLHQDWLNGKEYKCKVSNKALPAPIEKTISKAKGQPREPQVCTLPPSRDELTENQVSLTCLVKGFYPSDIAVEWESNGQPENNYKTTPPVLDSDGSFFLYSWLTVDKSRWQQGNVFSCSVMHEALHNHYTQKSLSLSPG scFv: not shown light: DIQMTQSPSSVSASVGDRVTITCRASQGISSWLAWYQQKPGKAPKLLIYAASSLQSGVPSRFSGSGSGTDFTLTISSLQPEDFATYYCQQGVSFPRTFGGGTKVEIKRTVAAPSPPSDEQLKSGTASVVCLLNNFYPREAKVQWKVDNALQSGNSQESVTEQDSKDSTYSLSSTLTLSKADYEKHKVYACEVTHQGLSSPVTKSFNRGEC",Kd,[3],370 nM and 328 nM and 313 nM
same,EC50 (read off the curve),[5],~0.3 µg/mL
same,EC50 (read off the curve),[6],~10 nM
same,EC50 (read off the curve),[7],~0.4 µg/mL
same,"EC50 (nM), % specific lysis of SKBR-3 target cells by KHYG-1-CD16V cells (DELFIA)",[4],0.39 nM
same,EC50 (read off the curve),[8],~10 nM
same,EC50 (read off the curve),[9],~0.3 µg/mL
same,Kd,[10],337 nM
